Laboratory results as given in publication PMC2903434.

Target: PAK1 kinase domain (K298R mutant), residues 250-545 from PAK-fl (UniProt Q13153)

Substance: truncated autoinhibitory domain (trunc-AID, residues 83-137) from PAK1 (from UniProt Q13153 83-137) (domain or fragment)
- Kd: 4 µM
